Source: the Immune Epitope Database (IEDB)
Values belong to the sequence of their own block, whether it stands above or below them.

Legend:
HLA-A*24:03 = assay: IEDB peptide-MHC binding, purified MHC/direct/fluorescence; filed as Kd, often an IC50 or EC50 that approximates it; ≥ and ≤ were set here for values at or beyond the usual limits of such assays
HLA-A*01:01 = assay: as above; conditions: source organism: Campylobacter jejuni
HLA-A*02:01 = assay: as above; conditions: source organism: Campylobacter jejuni RM1221
HLA-A*03:01 = assay: as above; conditions: source organism: Campylobacter jejuni RM1221
HLA-A*11:01 = assay: as above; conditions: source organism: Campylobacter jejuni RM1221
HLA-A*26:01 = assay: as above; conditions: source organism: Campylobacter jejuni RM1221
HLA-A*31:01 = assay: as above; conditions: source organism: Campylobacter jejuni RM1221
HLA-A*69:01 = assay: as above; conditions: source organism: Campylobacter jejuni RM1221
HLA-B*07:02 [1] = assay: as above; conditions: source organism: Campylobacter jejuni RM1221
HLA-B*08:01 = assay: as above; conditions: source organism: Campylobacter jejuni RM1221
HLA-B*15:01 = assay: as above; conditions: source organism: Campylobacter jejuni RM1221
HLA-B*27:05 = assay: as above; conditions: source organism: Campylobacter jejuni RM1221
HLA-B*40:01 [2] = assay: as above
HLA-B*44:02 [3] = assay: as above
HLA-B*58:01 = assay: as above; conditions: source organism: Campylobacter jejuni RM1221
HLA-B*15:42 = assay: IEDB peptide-MHC binding, purified MHC/competitive/fluorescence; filed as Kd, often an IC50 or EC50 that approximates it; ≥ and ≤ were set here for values at or beyond the usual limits of such assays; conditions: source organism: human gammaherpesvirus 4
HLA-B*45:06 = assay: as above; conditions: source organism: human gammaherpesvirus 4
HLA-B*83:01 = assay: as above; conditions: source organism: human gammaherpesvirus 4
HLA-B*07:02 [4] = assay: IEDB peptide-MHC binding, purified MHC/competitive/radioactivity; filed as Kd, often an IC50 or EC50 that approximates it; ≥ and ≤ were set here for values at or beyond the usual limits of such assays
HLA-B*35:01 = assay: as above
HLA-B*51:01 = assay: as above
HLA-B*53:01 = assay: as above
HLA-B*54:01 = assay: as above
HLA-B*18:01 [5] = assay: as above
HLA-B*40:01 [6] = assay: as above
HLA-B*40:02 = assay: as above
HLA-B*44:02 [7] = assay: as above
HLA-B*44:03 = assay: as above
HLA-B*45:01 = assay: as above
HLA-B*18:01 [8] = assay: IEDB peptide-MHC binding, purified MHC/direct/fluorescence; filed as Kd, often an IC50 or EC50 that approximates it; ≥ and ≤ were set here for values at or beyond the usual limits of such assays
[9] = source organism: Campylobacter jejuni RM1221
[10] = source organism: Triticum aestivum
[11] = source organism: Vaccinia virus WR
[12] = source organism: SARS coronavirus Tor2
[13] = source organism: Mammarenavirus lassaense
[14] = source organism: Mammarenavirus guanaritoense
[15] = source organism: Influenza A virus (A/SW/MN/12883/00(H1N2))

Sequence: KHIKPIVEF
Kd (HLA-A*24:03; source organism: Entamoeba histolytica): 0.0705 µM

Sequence: KNDAVYIGY
Kd (HLA-A*01:01): 19.2 µM
Kd (HLA-A*02:01): ≥ 20 µM
Kd (HLA-A*03:01): ≥ 20 µM
Kd (HLA-A*11:01): ≥ 20 µM
Kd (HLA-A*24:03; [9]): ≥ 20 µM
Kd (HLA-A*26:01): ≥ 20 µM
Kd (HLA-A*31:01): ≥ 20 µM
Kd (HLA-A*69:01): ≥ 20 µM
Kd (HLA-B*07:02 [1]): ≥ 20 µM
Kd (HLA-B*08:01): ≥ 20 µM
Kd (HLA-B*15:01): ≥ 20 µM
Kd (HLA-B*27:05): ≥ 20 µM
Kd (HLA-B*40:01 [2]; [9]): ≥ 20 µM
Kd (HLA-B*44:02 [3]; [9]): ≥ 20 µM
Kd (HLA-B*58:01): ≥ 20 µM

Sequence: VPRPRFSAL
Kd (HLA-B*15:42): ≥ 5 µM
Kd (HLA-B*45:06): ≥ 20 µM
Kd (HLA-B*83:01): 0.106 µM

Kd (HLA-B*07:02 [4]; [10]): ≥ 87.3 µM
Kd (HLA-B*35:01; [10]): 0.472 µM
Kd (HLA-B*51:01; [10]): 19.5 µM
Kd (HLA-B*53:01; [10]): 5.39 µM
Kd (HLA-B*54:01; [10]): ≥ 70 µM
Sequence: YPQPQPQY

Sequence: MPEKRNVVV
Kd (HLA-B*07:02 [4]; [11]): 0.0018 µM
Kd (HLA-B*35:01; [11]): 0.412 µM
Kd (HLA-B*51:01; [11]): 0.127 µM
Kd (HLA-B*53:01; [11]): 0.4 µM
Kd (HLA-B*54:01; [11]): 0.033 µM

Sequence: PYIDAADQF
Kd (HLA-A*24:03; source organism: Mycobacterium tuberculosis): 0.0912 µM

Sequence: FPLKLRGTAV
Kd (HLA-B*07:02 [4]; [12]): 0.135 µM
Kd (HLA-B*35:01; [12]): 4.53 µM
Kd (HLA-B*51:01; [12]): 0.659 µM
Kd (HLA-B*53:01; [12]): 4.48 µM
Kd (HLA-B*54:01; [12]): 0.00106 µM

Kd (HLA-B*07:02 [4]; [10]): ≥ 77.5 µM
Kd (HLA-B*35:01; [10]): 0.304 µM
Kd (HLA-B*51:01; [10]): ≥ 77.5 µM
Kd (HLA-B*53:01; [10]): ≥ 78.2 µM
Kd (HLA-B*54:01; [10]): ≥ 78.1 µM
Sequence: QPFPPQQPY

Sequence: YDFVLVGPC
Kd (HLA-B*18:01 [5]; [13]): ≥ 24 µM
Kd (HLA-B*40:01 [6]; [13]): 3.34 µM
Kd (HLA-B*40:02; [13]): 0.836 µM
Kd (HLA-B*44:02 [7]; [13]): 1 µM
Kd (HLA-B*44:03; [13]): 6.83 µM
Kd (HLA-B*45:01; [13]): 7.22 µM

Sequence: GEDGCWYGM
Kd (HLA-B*18:01 [8]; source organism: Dengue virus): 1.26 µM
Kd (HLA-B*44:02 [3]; source organism: Dengue virus): ≥ 20 µM

Sequence: LPYPDPSRIL
Kd (HLA-B*07:02 [4]; [12]): 3.79 µM
Kd (HLA-B*35:01; [12]): ≥ 27 µM
Kd (HLA-B*51:01; [12]): 1 µM
Kd (HLA-B*53:01; [12]): 8.29 µM
Kd (HLA-B*54:01; [12]): 9.53 µM

Sequence: ADYSVLYNST
Kd (HLA-B*18:01 [5]; [12]): ≥ 70.5 µM
Kd (HLA-B*40:01 [6]; [12]): ≥ 69.6 µM
Kd (HLA-B*40:02; [12]): ≥ 30.2 µM
Kd (HLA-B*44:02 [7]; [12]): 1.97 µM
Kd (HLA-B*44:03; [12]): ≥ 45.7 µM
Kd (HLA-B*45:01; [12]): 0.768 µM

Sequence: PEFDWILGWT
Kd (HLA-B*18:01 [5]; [14]): ≥ 70.4 µM
Kd (HLA-B*40:01 [6]; [14]): ≥ 69.5 µM
Kd (HLA-B*40:02; [14]): ≥ 23.6 µM
Kd (HLA-B*44:02 [7]; [14]): ≥ 70.2 µM
Kd (HLA-B*44:03; [14]): ≥ 28.1 µM
Kd (HLA-B*45:01; [14]): ≥ 70 µM

Sequence: NEVGARILT
Kd (HLA-B*18:01 [8]; [15]): 0.658 µM
Kd (HLA-B*40:01 [2]; [15]): ≥ 20 µM
Kd (HLA-B*44:02 [3]; [15]): ≥ 20 µM
